Test results from PMC4854876.

Target: human hemoglobin (human) (UniProt P69905)
Experiment: SPR

UniProt P69905, sequence (P69905 whole entry, chain 1 of 2): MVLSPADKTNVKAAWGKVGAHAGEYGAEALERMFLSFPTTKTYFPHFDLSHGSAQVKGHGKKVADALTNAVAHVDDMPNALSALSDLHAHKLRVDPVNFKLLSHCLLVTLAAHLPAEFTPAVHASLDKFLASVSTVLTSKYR
UniProt P69905, sequence (P68871 whole entry, chain 2 of 2, further chain): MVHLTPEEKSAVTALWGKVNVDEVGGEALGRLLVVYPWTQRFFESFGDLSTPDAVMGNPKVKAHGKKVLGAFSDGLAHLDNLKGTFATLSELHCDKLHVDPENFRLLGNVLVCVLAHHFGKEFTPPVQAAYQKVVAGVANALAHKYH

For “Spbhp-37 recombinant protein without the GST tag (natural protein)”, the Kd was 357 nM.
